Patent US20210246166A1 (Bayer, published 2021)
Numbered stars: 1 amine (or outer) side, 2 acyl side, 3 side chain; on linkers, the order of the positions; unused ones are H or OH. Bridge positions count the residues as written; N and C are the ends. Square brackets hold non-standard residues; d marks the D form. Ends that are not written are not given here. cPrCO(1-aminomethyl) = O=C(C1(CN[*:1])CC1)[*:2]; Phe(3-COOH) = N[C@@H](Cc1cccc(C(=O)O)c1)C(=O)O; Oic = O=C(O)[C@@H]1C[C@@H]2CCCC[C@@H]2N1; PEG8 = NCCOCCOCCOCCOCCOCCOCCOCCOCCC(=O)O; PEG7 = NCCOCCOCCOCCOCCOCCOCCOCCC(=O)O; NMeI = CC[C@H](C)[C@H](NC)C(=O)O; tBuAla = CC(C)(C)C[C@H](N)C(=O)O; Cit = NC(=O)NCCC[C@H](N)C(=O)O; Pen = CC(C)(S)[C@H](N)C(=O)O; NMeC = CN[C@@H](CS)C(=O)O; Pip = O=C(O)[C@@H]1CCCCN1; NMeA = CN[C@@H](C)C(=O)O; Orn = NCCC[C@H](N)C(=O)O; Sar = CNCC(=O)O

T1: recombinant human MASP1 active protease (amino acids 297-699, C-terminal His Tag) (human, UniProt P48740 297-699)
T1 sequence: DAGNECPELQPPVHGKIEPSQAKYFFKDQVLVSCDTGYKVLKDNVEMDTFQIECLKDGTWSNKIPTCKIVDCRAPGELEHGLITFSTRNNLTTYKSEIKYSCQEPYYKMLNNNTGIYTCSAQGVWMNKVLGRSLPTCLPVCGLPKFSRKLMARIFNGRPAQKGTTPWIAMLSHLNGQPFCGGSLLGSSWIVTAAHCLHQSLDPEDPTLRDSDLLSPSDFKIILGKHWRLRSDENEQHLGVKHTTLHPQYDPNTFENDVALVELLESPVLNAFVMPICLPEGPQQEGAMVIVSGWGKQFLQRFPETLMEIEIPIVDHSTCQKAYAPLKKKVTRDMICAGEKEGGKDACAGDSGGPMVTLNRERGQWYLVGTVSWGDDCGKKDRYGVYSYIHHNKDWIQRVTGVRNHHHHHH

T2: Recombinant human MASP1 enzyme (fragment corresponding to amino acids 297-699, C-terminal His Tag) (human, UniProt P48740 297-699)
T2 sequence: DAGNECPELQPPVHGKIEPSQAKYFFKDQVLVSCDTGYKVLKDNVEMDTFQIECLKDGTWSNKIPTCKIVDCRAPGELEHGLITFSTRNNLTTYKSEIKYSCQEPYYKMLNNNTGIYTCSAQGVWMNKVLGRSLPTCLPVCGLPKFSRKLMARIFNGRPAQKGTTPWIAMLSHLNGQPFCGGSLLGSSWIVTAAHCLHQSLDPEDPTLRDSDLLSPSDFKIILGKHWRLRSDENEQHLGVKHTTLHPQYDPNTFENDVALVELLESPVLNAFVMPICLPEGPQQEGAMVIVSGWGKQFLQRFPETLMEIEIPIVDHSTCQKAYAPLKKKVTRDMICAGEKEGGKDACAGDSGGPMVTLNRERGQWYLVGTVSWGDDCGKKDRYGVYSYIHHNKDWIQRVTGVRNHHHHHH


Experiments:
[1] = target: T1, recombinant human MASP1 active protease …; experiment: cell-based or functional assay
[2] = target: T2, Recombinant human MASP1 enzyme …; experiment: cell-based or functional assay

Binder | human MASP1 IC50 [1] [nM] | human MASP1 IC50 [2] [nM]
AICSRS[tBuAla]P[Oic]ICI-NH2 (disulfide 3-11; N-terminus assumed; SMILES CC[C@H](C)[C@H](NC(=O)[C@@H]1CSSC[C@H](NC(=O)[C@@H](NC(=O)[C@H](C)N)[C@@H](C)CC)C(=O)N[C@@H](CO)C(=O)N[C@@H](CCCNC(=N)N)C(=O)N[C@@H](CO)C(=O)N[C@@H](CC(C)(C)C)C(=O)N2CCC[C@H]2C(=O)N2[C@@H](C[C@@H]3CCCC[C@@H]32)C(=O)N[C@@H]([C@@H](C)CC)C(=O)N1)C(N)=O) [AIC+SRS-((tBu)A)-P-(Oic)-IC+I-NH2] | 3.3 | –
[Orn]ICSRS[tBuAla]PPI[Pen]IPD-OH (disulfide 3-11; N-terminus assumed; SMILES CC[C@H](C)[C@H](NC(=O)[C@@H](N)CCCN)C(=O)N[C@H]1CSSC(C)(C)[C@@H](C(=O)N[C@H](C(=O)N2CCC[C@H]2C(=O)N[C@@H](CC(=O)O)C(=O)O)[C@@H](C)CC)NC(=O)[C@H]([C@@H](C)CC)NC(=O)[C@@H]2CCCN2C(=O)[C@@H]2CCCN2C(=O)[C@H](CC(C)(C)C)NC(=O)[C@H](CO)NC(=O)[C@H](CCCNC(=N)N)NC(=O)[C@H](CO)NC1=O) [(Orn)-IC+SRS-((tBu)A)-PPI-(Pen)+IPD-OH] | 1.35 | –
AICSRSLP[Oic]I[Pen]IPD-OH (disulfide 3-11; also: TFA salt) [AIC+SRSLP-(Oic)-I-(Pen)+IPD-OH] | 1.85 | –
AICSRSLP[Oic]I[NMeC]IPD-OH (disulfide 3-11; N-terminus assumed; SMILES CC[C@H](C)[C@H](NC(=O)[C@H](C)N)C(=O)N[C@H]1CSSC[C@@H](C(=O)N[C@H](C(=O)N2CCC[C@H]2C(=O)N[C@@H](CC(=O)O)C(=O)O)[C@@H](C)CC)N(C)C(=O)[C@H]([C@@H](C)CC)NC(=O)[C@@H]2C[C@@H]3CCCC[C@@H]3N2C(=O)[C@@H]2CCCN2C(=O)[C@H](CC(C)C)NC(=O)[C@H](CO)NC(=O)[C@H](CCCNC(=N)N)NC(=O)[C@H](CO)NC1=O) [AIC+SRSLP-(Oic)-I-((N-Me)C)+IPD-OH] | – | 4.4
[Pip]ICSRS[tBuAla]PPI[NMeC]IPD-NH2 (disulfide 3-11; N-terminus assumed; SMILES CC[C@H](C)[C@H](NC(=O)[C@@H]1CCCCN1)C(=O)N[C@H]1CSSC[C@@H](C(=O)N[C@H](C(=O)N2CCC[C@H]2C(=O)N[C@@H](CC(=O)O)C(N)=O)[C@@H](C)CC)N(C)C(=O)[C@H]([C@@H](C)CC)NC(=O)[C@@H]2CCCN2C(=O)[C@@H]2CCCN2C(=O)[C@H](CC(C)(C)C)NC(=O)[C@H](CO)NC(=O)[C@H](CCCNC(=N)N)NC(=O)[C@H](CO)NC1=O) [(Pip)-IC+SRS-((tBu)A)-PPI-((N-Me)C)+IPD-NH2] | 1.9 | –
[dA]ICSRSLP[Oic]I[Pen]IPD-NH2 (disulfide 3-11) [aIC+SRSLP-(Oic)-I-(Pen)+IPD-NH2] | – | 6.3
[Sar]ICSRSLP[Oic]I[Pen]IP[PEG8]-NH2 (disulfide 3-11; N-terminus assumed; SMILES CC[C@H](C)[C@H](NC(=O)CNC)C(=O)N[C@H]1CSSC(C)(C)[C@@H](C(=O)N[C@H](C(=O)N2CCC[C@H]2C(=O)NCCOCCOCCOCCOCCOCCOCCOCCOCCC(N)=O)[C@@H](C)CC)NC(=O)[C@H]([C@@H](C)CC)NC(=O)[C@@H]2C[C@@H]3CCCC[C@@H]3N2C(=O)[C@@H]2CCCN2C(=O)[C@H](CC(C)C)NC(=O)[C@H](CO)NC(=O)[C@H](CCCNC(=N)N)NC(=O)[C@H](CO)NC1=O) [((N-Me)G)-IC+SRSLP-(Oic)-I-(Pen)+IP-(PEG8(28 atoms))-NH2] | – | 4.2
[dA]ICSRSLP[Oic]I[Pen]IPD-OH (disulfide 3-11) [aIC+SRSLP-(Oic)-I-(Pen)+IPD-OH] | – | 7
[3‑Amino‑2,2‑dimethylpropionic acid]ICSRS[tBuAla]PPI[Pen]IPD-NH2 (disulfide 3-11) [(3-Amino-2,2-dimethylpropionic acid)-IC+SRS-((tBu)A)-PPI-(Pen)+IPD-NH2] | – | 4.2
[NMeA]ICSRS[tBuAla]PPI[NMeC]IPD-NH2 (disulfide 3-11; N-terminus assumed; SMILES CC[C@H](C)[C@H](NC(=O)[C@H](C)NC)C(=O)N[C@H]1CSSC[C@@H](C(=O)N[C@H](C(=O)N2CCC[C@H]2C(=O)N[C@@H](CC(=O)O)C(N)=O)[C@@H](C)CC)N(C)C(=O)[C@H]([C@@H](C)CC)NC(=O)[C@@H]2CCCN2C(=O)[C@@H]2CCCN2C(=O)[C@H](CC(C)(C)C)NC(=O)[C@H](CO)NC(=O)[C@H](CCCNC(=N)N)NC(=O)[C@H](CO)NC1=O) [((N-Me)A)-IC+SRS-((tBu)A)-PPI-((N-Me)C)+IPD-NH2] | – | 4.4
AICSRSLP[Oic]I[Pen]IPD-NH2 (disulfide 3-11) [AIC+SRSLP-(Oic)-I-(Pen)+IPD-NH2 (salt free form)] | 1.5 | –
[(1R,3S,4S)‑2‑azabicyclo(2.2.1)heptane‑3‑carboxylic acid]ICSRS[tBuAla]PPI[Pen]IP-NH2 (disulfide 3-11) [((1R,3S,4S)-2-azabicyclo[2.2.1]heptane-3-carboxylic acid)-IC+SRS-((tBu)A)-PPI-(Pen)+IP-NH2] | 1.6 | –
[Sar]ICSRSLP[Oic]I[Pen]IP[PEG7]-NH2 (disulfide 3-11; N-terminus assumed; SMILES CC[C@H](C)[C@H](NC(=O)CNC)C(=O)N[C@H]1CSSC(C)(C)[C@@H](C(=O)N[C@H](C(=O)N2CCC[C@H]2C(=O)NCCOCCOCCOCCOCCOCCOCCOCCC(N)=O)[C@@H](C)CC)NC(=O)[C@H]([C@@H](C)CC)NC(=O)[C@@H]2C[C@@H]3CCCC[C@@H]3N2C(=O)[C@@H]2CCCN2C(=O)[C@H](CC(C)C)NC(=O)[C@H](CO)NC(=O)[C@H](CCCNC(=N)N)NC(=O)[C@H](CO)NC1=O) [((N-Me)G)-IC+SRSLP-(Oic)-I-(Pen)+IP-(PEG7(25 atoms))-NH2] | 3.7 | –
[Cit]ICSRS[tBuAla]PPI[Pen]IPD-NH2 (disulfide 3-11; N-terminus assumed; SMILES CC[C@H](C)[C@H](NC(=O)[C@@H](N)CCCNC(N)=O)C(=O)N[C@H]1CSSC(C)(C)[C@@H](C(=O)N[C@H](C(=O)N2CCC[C@H]2C(=O)N[C@@H](CC(=O)O)C(N)=O)[C@@H](C)CC)NC(=O)[C@H]([C@@H](C)CC)NC(=O)[C@@H]2CCCN2C(=O)[C@@H]2CCCN2C(=O)[C@H](CC(C)(C)C)NC(=O)[C@H](CO)NC(=O)[C@H](CCCNC(=N)N)NC(=O)[C@H](CO)NC1=O) [(Cit)-IC+SRS-((tBu)A)-PPI-(Pen)+IPD-NH2] | 1.7 | –
[Sar]ICSRSLP[Oic]I[Pen]IP[Phe(3-COOH)]-NH2 (disulfide 3-11; N-terminus assumed; SMILES CC[C@H](C)[C@H](NC(=O)CNC)C(=O)N[C@H]1CSSC(C)(C)[C@@H](C(=O)N[C@H](C(=O)N2CCC[C@H]2C(=O)N[C@@H](Cc2cccc(C(=O)O)c2)C(N)=O)[C@@H](C)CC)NC(=O)[C@H]([C@@H](C)CC)NC(=O)[C@@H]2C[C@@H]3CCCC[C@@H]3N2C(=O)[C@@H]2CCCN2C(=O)[C@H](CC(C)C)NC(=O)[C@H](CO)NC(=O)[C@H](CCCNC(=N)N)NC(=O)[C@H](CO)NC1=O) [((N-Me)G)-IC+SRSLP-(Oic)-I-(Pen)+IP-((3-Carboxy)F)-NH2] | – | 5
[3‑Amino‑3‑methylbutyric acid]ICSRS[tBuAla]PPI[Pen]IPD-NH2 (disulfide 3-11) [(3-Amino-3-methylbutyric acid)-IC+SRS-((tBu)A)-PPI-(Pen)+IPD-NH2] | 1.9 | –
[Sar]ICSRS[tBuAla]PPI[Pen]IP[PEG7]-NH2 (disulfide 3-11; N-terminus assumed; SMILES CC[C@H](C)[C@H](NC(=O)CNC)C(=O)N[C@H]1CSSC(C)(C)[C@@H](C(=O)N[C@H](C(=O)N2CCC[C@H]2C(=O)NCCOCCOCCOCCOCCOCCOCCOCCC(N)=O)[C@@H](C)CC)NC(=O)[C@H]([C@@H](C)CC)NC(=O)[C@@H]2CCCN2C(=O)[C@@H]2CCCN2C(=O)[C@H](CC(C)(C)C)NC(=O)[C@H](CO)NC(=O)[C@H](CCCNC(=N)N)NC(=O)[C@H](CO)NC1=O) [((N-Me)G)-IC+SRS-((tBu)A)-PPI-(Pen)+IP-(PEG7(25 atoms))-NH2] | 1.6 | –
AICSRSLP[Oic]I[Pen]IPD-OH (disulfide 3-11; also: HCl salt) [AIC+SRSLP-(Oic)-I-(Pen)+IPD-OH (HCl salt)] | 2.45 | –
AICSRSLP[Oic]I[Pen]IPD-NH2 (disulfide 3-11; also: HCl salt) [AIC+SRSLP-(Oic)-I-(Pen)+IPD-NH2 (HCl salt)] | 1.5 | –
[cPrCO(1-aminomethyl)]ICSRS[tBuAla]PPI[Pen]IPD-NH2 (disulfide 3-11; N-terminus assumed; SMILES CC[C@H](C)[C@@H]1NC(=O)[C@@H]2CCCN2C(=O)[C@@H]2CCCN2C(=O)[C@H](CC(C)(C)C)NC(=O)[C@H](CO)NC(=O)[C@H](CCCNC(=N)N)NC(=O)[C@H](CO)NC(=O)[C@@H](NC(=O)[C@@H](NC(=O)C2(CN)CC2)[C@@H](C)CC)CSSC(C)(C)[C@@H](C(=O)N[C@H](C(=O)N2CCC[C@H]2C(=O)N[C@@H](CC(=O)O)C(N)=O)[C@@H](C)CC)NC1=O) [(ACMP)-IC+SRS-((tBu)A)-PPI-(Pen)+IPD-NH2] | 1.6 | –
G[NMeI]CSRSLPPICIPD-NH2 (disulfide 3-11; also: HCl salt) [G-((N-Me)I)-C+SRSLPPIC+IPD-NH2 (HCl salt)] | – | 5.5
